Assay results published in patent publication US20220213227A1 (published 2022).

Target: T1, soluble extracellular region of cynomolgus monkey CD38 antigen fused to a 6-His-tag (UniProt Q5VAN0 45-301)
T1 chain: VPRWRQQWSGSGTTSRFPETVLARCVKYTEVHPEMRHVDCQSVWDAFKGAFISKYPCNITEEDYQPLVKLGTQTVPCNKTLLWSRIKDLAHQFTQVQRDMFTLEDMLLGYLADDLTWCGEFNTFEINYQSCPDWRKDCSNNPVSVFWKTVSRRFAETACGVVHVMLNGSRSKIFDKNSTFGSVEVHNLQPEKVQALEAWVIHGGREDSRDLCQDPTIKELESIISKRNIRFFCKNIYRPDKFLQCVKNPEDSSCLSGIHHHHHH
Test: SPR

B1: chimeric 9G7 antibody (antibody, V domains shown)
VH: QVTLKESGPGILQPSQTLSLTCSFSGLSLSTSGKGVGWIRQPSGKGLEWLAHIWWDDDKRYNPALKSRLTISKDTSSNQVFLKIASVDTADTATYYCARIELGRSYVMDYWGQGTTVTVSS
VL: DIVMTQSHKFMSTSVGDRVSISCKASQDVITSVAWFQQKPGQSPKLLIYSASYRYTGVPDRFTGSGSGTDFTFTISSVQAEDLAVYYCQQHYTIPLTFGAGTKLELKR
B1 showed a Kd of 1 nM.
